Test system: human SKBR3 breast cancer cells
Experiment: Soft-Agar Colony Formation Assay (anchorage-independent growth)
Type: cell-based
Settings: OPG 1 μg/ml with RANKL 1 μg/ml, 18 days in culture
Procedure: a, Western blotting for phosphorylated (P) IKKα, total IKKα, phosphorylated (P) p65 NFκB, total p65 NFκB, phosphorylated (P) IκBα, and total IκBα in isolated primary mouse mammary gland epithelial cells (MECs) in response to RANKL stimulation (1 μg/ml). β-actin is shown as loading control. b, Western blotting for IKKα, IKKβ, IKKγ, phosphorylated (P) p65 NFκB, total p65 NFκB, phosphorylated (P) IκBα, and total IκBα in pooled late stage mammary adenocarconimas (n=4 for each lane) that developed in control, RANK^Δmam and IKKΔ^Δmam females. β-actin is shown as loading control c, Expression of RANK, CyclinD1, and p21 mRNA in late stage mammary adenocacinomas that developed in control, RANK^Δmam, and IKKα^Δmam females. Expression was determined by qRT-PCR. Data are mean values+/−sem. n=4 per group. d, Soft-Agar Colony Formation Assay. Growth of human SKBR3 breast cancer cells in soft agar in response to stimulation with RANKL (1 μg/ml) or EGF (100 ng/ml). Anchorage-independent, macroscopic colonies formed after 18 days in culture with RANKL, which was prevented by the decoy receptor OPG (1 μg/ml). […] Apoptosis was detected by immunostaining for active Caspase 3. f, Apoptotic nuclei of epithelial cells (arrows) are shown for representative mammary gland sections. Magnifications×40. g, Quantification of mammary epithelial apoptosis. A minimum of 5000 nuclei was counted for each mouse. […]

B1: OPG: secreted decoy receptor of RANKL, used as RANKL inhibitor (1 μg/ml) (protein, UniProt O00300 22-401, looked up)
Tumor necrosis factor …: ETFPPKYLHYDEETSHQLLCDKCPPGTYLKQHCTAKWKTVCAPCPDHYYTDSWHTSDECLYCSPVCKELQYVKQECNRTHNRVCECKEGRYLEIEFCLKHRSCPPGFGVVQAGTPERNTVCKRCPDGFFSNETSSKAPCRKHTNCSVFGLLLTQKGNATHDNICSGNSESTQKCGIDVTLCEEAFFRFAVPTKFTPNWLSVLVDNLPGTKVNAESVERIKRQHSSQEQTFQLLKLWKHQNKDQDIVKKIIQDIDLCENSVQRHIGHANLTFEQLRSLMESLPGKKVGAEDIEKTIKACKPSDQILKLLSLWRIKNGDQDTLKGLMHALKHSKTYHFPKTVTQSLKKTIRFLHSFTMYKLYQKLFLEMIGNQVQSVKISCL
For B1, the “effect on RANKL-induced anchorage-independent macroscopic colonies” value was “prevented”.
